Results: US20160194389A1

target: human neonatal Fc-receptor (FcRn) (human) (UniProt P55899); test: FcRn affinity chromatography of the knobs-into-holes anti-VEGF/ANG2 antibody

RT [min] (retention time on the FcRn affinity column)	Substance
0	bispecific anti-VEGF/ANG2 antibody (knobs-into-holes), first chain with I253A/H310A/H435A and second chain with H310A (bispecific antibody)
0	bispecific anti-VEGF/ANG2 antibody (knobs-into-holes), first chain with I253A/H310A/H435A and second chain with H435A (bispecific antibody)
0	bispecific anti-VEGF/ANG2 antibody (knobs-into-holes), first chain with I253A/H310A/H435A and second chain with I253A/H310A/H435A (bispecific antibody)
52.8	bispecific anti-VEGF/ANG2 antibody (knobs-into-holes), no FcRn affecting mutation (bispecific antibody)

target: human neonatal Fc-receptor (FcRn) (human) (UniProt P55899); test: FcRn affinity column chromatography

Substance	FcRn-affinity column retention time [min]	retention time [min]
symmetrically engineered IgG1 Fc-region, L234A/L235A/P329G with Y436A (antibody)	41.3	
symmetrically modified anti-HER2 antibody, mutation D98E		46.2
symmetrically modified anti-HER2 antibody, mutation E258H		45.6
symmetrically modified anti-HER2 antibody, mutation E430H		46.4
symmetrically modified anti-HER2 antibody, mutation N434H		52
symmetrically modified anti-HER2 antibody, mutation R255D		41.4
symmetrically modified anti-HER2 antibody, mutation T256H		46

Results, then the substance that gave them:

FcRn-affinity column retention time [min]	retention time [min]	Substance
	45.2	symmetrically modified anti-HER2 antibody, mutation K288E
	46.2	symmetrically modified anti-HER2 antibody, mutation K290H
	46.3	symmetrically modified anti-HER2 antibody, mutation K317H
	45.5	symmetrically modified anti-HER2 antibody, mutation L309H
	46.3	symmetrically modified anti-HER2 antibody, mutation Q311H
